Source: the supplement of paper PMC12764529
± gives the half width of the 95% confidence interval.

Legend:
[1] = folding stability dG unfold (combined trypsin and chymotrypsin); higher = more stable
Method in brief: (§1)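 Unfolding free energy was derived, per protease or combined, against a sequence-predicted unfolded-state K50 and a shared folded-state K50, starting from K50 inferred by Bayesian fitting of sequencing counts. Digestion with trypsin and chymotrypsin was carried out on designed mini-proteins under 80 residues without cysteine in a PA-tagged cDNA display construct. Only designs with AlphaFold2 dimer inter-PAE above 15 were kept.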

[2] = folding stability dG unfold from chymotrypsin proteolysis; higher = more stable
Method in brief: as §1

[3] = folding stability dG unfold from trypsin proteolysis; higher = more stable
Method in brief: as §1

## SWVEIPPDKIKDLMNRFQNGDWEEIVDLLKDLGFKNVTIEPQRNNGQRYFTIWVEHPDGPVIIEMPPSDISA [r9_783_TrROS]
[1]
  folding stability dG unfold: 2.72 ± 0.097 kcal/mol
[2]
  folding stability dG unfold: 2.87 ± 0.044 kcal/mol
[3]
  folding stability dG unfold: 2.39 ± 0.082 kcal/mol

## SAGLSPQVRDWLRDLFQEEGFKVKEIDVQPHPNGQMYIKINYPNGKPIKEIPVPPGMDTPEQALKMIRKSAG [r5_352_TrROS]
[1]
  folding stability dG unfold: 0.312 ± 0.07 kcal/mol
[2]
  folding stability dG unfold: 0.498 ± 0.13 kcal/mol
[3]
  folding stability dG unfold: -0.00734 ± 0.11 kcal/mol

## SAGGMYRVKVGDDERLIDTDPENFKTLEEAVKKVAEKIKEEYPNRPELTITVEAEDGTPLATVTITLSSAGG [r13_257_JUSTAS]
[1]
  folding stability dG unfold: 0.894 ± 0.29 kcal/mol
[2]
  folding stability dG unfold: 0.614 ± 0.19 kcal/mol
[3]
  folding stability dG unfold: 0.759 ± 0.12 kcal/mol

## SAGGSAGGSAGKEIKVETEENPNGQHPVKIEIYDGGNPRPIEFPVDSPEDAEDWAKELLKSAGGSAGGSAGG [r11_560_TrROS]
[1]
  folding stability dG unfold: -0.0496 ± 0.079 kcal/mol
[2]
  folding stability dG unfold: 0.148 ± 0.031 kcal/mol
[3]
  folding stability dG unfold: -0.595 ± 0.074 kcal/mol

## SAGGSAGGSAGSFLIVVRFPNSTVLFDAPEDTDVDALKKAIKKLFNADIEVEVVPKEKPLSAGGSAGGSAGG [r11_805_TrMRF]
[1]
  folding stability dG unfold: 1.79 ± 0.093 kcal/mol
[2]
  folding stability dG unfold: 1.55 ± 0.051 kcal/mol
[3]
  folding stability dG unfold: 1.75 ± 0.058 kcal/mol

## SKKKKIIKIDIKPEDIEKGIKAVREAIKKAKEAEPDTEVIIDFHFESDYPEKVKEIEDLFKKENIPLKIGSA [r9_1202_TrMRF]
[1]
  folding stability dG unfold: 1.31 ± 0.18 kcal/mol
[2]
  folding stability dG unfold: 0.883 ± 0.048 kcal/mol
[3]
  folding stability dG unfold: 1.39 ± 0.11 kcal/mol

## SWLKLPPGQKVITFQFQYPLPPGQSADDLVDNMEKELREFFGPGVKIEVNVQWDPNNGYFRVSVTIVIPKSA [r9_657_TrROS]
[1]
  folding stability dG unfold: 1.63 ± 0.2 kcal/mol
[2]
  folding stability dG unfold: 1.21 ± 0.17 kcal/mol
[3]
  folding stability dG unfold: 1.86 ± 0.057 kcal/mol

## SAGDWYVVIEIKHPNGRTITFVLRFDSPDELKDEILDNMRDEYGGPPEDMPITDIRVEVFDPKTGKPIWSAG [r5_482_TrROS]
[1]
  folding stability dG unfold: 3.15 ± 0.14 kcal/mol
[2]
  folding stability dG unfold: 3.36 ± 0.09 kcal/mol
[3]
  folding stability dG unfold: 2.65 ± 0.18 kcal/mol

## SAGGSAGGSASMTSSVSTSLNPDNPPVVLVTTTYPDGTVTLTVKDLSTGTTTSTTTTPLPSSAGGSAGGSAG [r3_299_JUSTAS]
[1]
  folding stability dG unfold: 0.893 ± 0.059 kcal/mol
[2]
  folding stability dG unfold: 0.589 ± 0.043 kcal/mol
[3]
  folding stability dG unfold: 1.17 ± 0.042 kcal/mol

## SAGGSAGGSAGGSMEITVETYPEVPLVRFTLPGGELVLLPVPPDVPEEEIRALAEALLASAGGSAGGSAGGS [r10_33_JUSTAS]
[1]
  folding stability dG unfold: 0.874 ± 0.12 kcal/mol
[2]
  folding stability dG unfold: 0.833 ± 0.15 kcal/mol
[3]
  folding stability dG unfold: 0.897 ± 0.025 kcal/mol

## SAGGSAGGSAGGPPPGQKVTMWVIRIEIKIKLERTPDGKLKLKIEIKISIVFITIYAPDSAGGSAGGSAGGS [r10_297_TrROS]
[1]
  folding stability dG unfold: 4.6 ± 0.22 kcal/mol
[2]
  folding stability dG unfold: 4.87 ± 0.19 kcal/mol
[3]
  folding stability dG unfold: 3.45 ± 0.13 kcal/mol

## SAGMGPNEVKPIEIEFEVYETGEGEPYLVGKAIAKLYVDPVEGTVRLEIKDPEKPEPFITFEFPVEEISAGG [r19_413_TrMRF]
[1]
  folding stability dG unfold: 1.94 ± 0.065 kcal/mol
[2]
  folding stability dG unfold: 2.22 ± 0.037 kcal/mol
[3]
  folding stability dG unfold: 1.38 ± 0.039 kcal/mol

## SAGMQLLPSATVTLTNPKTGETTTVSVQALRDELAARRGTTDPAAITEADIEAWAKEQGYDPITFTLPSAGG [r19_67_JUSTAS]
[1]
  folding stability dG unfold: 2.78 ± 0.076 kcal/mol
[2]
  folding stability dG unfold: 2.55 ± 0.027 kcal/mol
[3]
  folding stability dG unfold: 2.96 ± 0.069 kcal/mol

## SAGGSAGGSAGGKPKKVVIYIELTPEQEEAIKKGKSLEEVVEELIKEAEKKGLEVEIVGSAGGSAGGSAGGS [r10_890_TrROS_Hall]
[1]
  folding stability dG unfold: 1.62 ± 0.14 kcal/mol
[2]
  folding stability dG unfold: 1.93 ± 0.067 kcal/mol
[3]
  folding stability dG unfold: 1.2 ± 0.029 kcal/mol

## SAGGSAGGSASPIHATVSVDPETGTYTVHYPDGSTKTITGLSPEEVAALAKEMGIDEITLESAGGSAGGSAG [r3_78_JUSTAS]
[1]
  folding stability dG unfold: 2.81 ± 0.044 kcal/mol
[2]
  folding stability dG unfold: 2.64 ± 0.034 kcal/mol
[3]
  folding stability dG unfold: 3 ± 0.08 kcal/mol

## SAGGSAPPPPETVRIRVRITLPDGRTLEIEIEVSREEAERLAKELADRLRELGYEVKVEIVEVEEVSAGGSA [r2_274_TrROS_Hall]
[1]
  folding stability dG unfold: 4.51 ± 0.32 kcal/mol
[2]
  folding stability dG unfold: 3.14 ± 0.28 kcal/mol
[3]
  folding stability dG unfold: 4.34 ± 0.31 kcal/mol

## SAGGSAGGSEKEIEIELPEGAEIVEIDEEKGVITVRVNGKLIEIEIKPVKVEKVEVELPPEEESAGGSAGGS [r12_243_TrROS_Hall]
[1]
  folding stability dG unfold: 2.4 ± 0.17 kcal/mol
[2]
  folding stability dG unfold: 1.73 ± 0.13 kcal/mol
[3]
  folding stability dG unfold: 2.77 ± 0.19 kcal/mol

## SAGGSAGGSPEEFEIKIVEPTPIEINPNGSVSLTFTVPNGWYLRIMIMRPPDGNPQPMIMIIPSAGGSAGGS [r20_240_TrROS]
[1]
  folding stability dG unfold: 3.22 ± 0.11 kcal/mol
[2]
  folding stability dG unfold: 3.54 ± 0.062 kcal/mol
[3]
  folding stability dG unfold: 2.86 ± 0.086 kcal/mol

## SAGGSAGGSAETVTITLKVKPGEKVKIVNKKTKKVFEATVKDGYLTITLPKEDITEIKIEKVSAGGSAGGSA [r18_170_TrROS_Hall]
[1]
  folding stability dG unfold: 2.29 ± 0.09 kcal/mol
[2]
  folding stability dG unfold: 2.47 ± 0.019 kcal/mol
[3]
  folding stability dG unfold: 1.77 ± 0.05 kcal/mol

## SAGGSAGGSAGSTLTVTLTVRDPANPGTTTTVTLTLEVEPAPPPEVVVVKDANGNETLVPSAGGSAGGSAGG [r11_419_TrROS_Hall]
[1]
  folding stability dG unfold: 1.63 ± 0.061 kcal/mol
[2]
  folding stability dG unfold: 1.91 ± 0.052 kcal/mol
[3]
  folding stability dG unfold: 1.29 ± 0.047 kcal/mol

## SAGGMSPEELASLSPEERRAVVEEALRERLARERPGAPPDFALEDVPVTVRDPATGTTTTVTVRLEAASAGG [r13_555_JUSTAS]
[1]
  folding stability dG unfold: 0.177 ± 0.16 kcal/mol
[2]
  folding stability dG unfold: 0.109 ± 0.14 kcal/mol
[3]
  folding stability dG unfold: 0.384 ± 0.11 kcal/mol

## SAGGSAMKVEIVLKVPGDEMLDIEVDEEFPVVDQTIDKETGIVTVLLEGDPEKAEEIAKEIAEKLGSAGGSA [r15_662_TrMRF]
[1]
  folding stability dG unfold: 0.511 ± 0.1 kcal/mol
[2]
  folding stability dG unfold: 0.299 ± 0.044 kcal/mol
[3]
  folding stability dG unfold: 0.6 ± 0.069 kcal/mol

## SAGGSAGGSAAITIEVKPGETVTITLEIEVELPPGARAADGRTFKPGEKVRVTVTLTLRVEPSAGGSAGGSA [r18_450_TrROS_Hall]
[1]
  folding stability dG unfold: 4.26 ± 0.22 kcal/mol
[2]
  folding stability dG unfold: 4.21 ± 0.27 kcal/mol
[3]
  folding stability dG unfold: 3.72 ± 0.21 kcal/mol

## SAGKKLIEAAKNNKKAVIPVKYKKYKITEKYKTKDGGTKYKAKLIEEKTYNVKLIKVDPKTGKIIIDPKSAG [r5_5_TrMRF]
[1]
  folding stability dG unfold: 1.75 ± 0.92 kcal/mol
[2]
  folding stability dG unfold: 1.82 ± 0.28 kcal/mol
[3]
  folding stability dG unfold: 1.07 ± 0.13 kcal/mol

## SAGGGPNTYVKVTLPLPPNKADVVEEIAKLFPNVKVEVTTTPENGTLPVTFYFPSPDGSPDAKVSIFSAGGS [r8_267_TrMRF]
[1]
  folding stability dG unfold: 0.754 ± 0.15 kcal/mol
[2]
  folding stability dG unfold: 1.11 ± 0.31 kcal/mol
[3]
  folding stability dG unfold: 0.407 ± 0.15 kcal/mol

## SEVVLEVKVEVRVKRNENGELEVEVKVEVKLVELEPPEPRIELSEEEREKLKEEAEKLGLELTDEELEALSA [r9_487_TrROS_Hall]
[1]
  folding stability dG unfold: 1.75 ± 0.2 kcal/mol
[2]
  folding stability dG unfold: 1.87 ± 0.15 kcal/mol
[3]
  folding stability dG unfold: 1.9 ± 0.13 kcal/mol

## SAGMVITLERTIPPTVSVSPEEAVAAIKAELEATPGVTVTAVNSVTVTPLPDGTLRVTVDIVVDRPEPSAGG [r19_396_JUSTAS]
[1]
  folding stability dG unfold: 2.53 ± 0.06 kcal/mol
[2]
  folding stability dG unfold: 2.634 ± 0.024 kcal/mol
[3]
  folding stability dG unfold: 2.23 ± 0.037 kcal/mol

## SAMTPEEIKKKVEELLKELAKELNAEVTSVKVDKETKTITVTVKVKLPNGETKTLTLKFTIDKDGKITFSAG [r14_183_TrROS_Hall]
[1]
  folding stability dG unfold: 4.32 ± 0.14 kcal/mol
[2]
  folding stability dG unfold: 4.5 ± 0.079 kcal/mol
[3]
  folding stability dG unfold: 3.67 ± 0.12 kcal/mol

## SAGGSAGGSAGDPGERPYVEVTVRIPITPGLEIPWWIPPENMPPEDAEKFAQDIAKEFLDSAGGSAGGSAGG [r11_409_TrROS]
[1]
  folding stability dG unfold: 0.426 ± 0.11 kcal/mol
[2]
  folding stability dG unfold: -0.482 ± 0.17 kcal/mol
[3]
  folding stability dG unfold: 0.889 ± 0.047 kcal/mol

## SAMLVVELEVDLPELKYMTPEEAEEIAEALAVEAAKELFPESDVKVKEVVVEPEPETGKLKVTVVLENESAG [r14_310_TrMRF]
[1]
  folding stability dG unfold: 2.46 ± 0.081 kcal/mol
[2]
  folding stability dG unfold: 2.51 ± 0.048 kcal/mol
[3]
  folding stability dG unfold: 2.18 ± 0.13 kcal/mol

## SAGGSAGGSAMTIVVKSEEEAKKLAELLNAEVVEEKDGYLTIKLEGMSEEERKKILELLKKSAGGSAGGSAG [r3_398_TrROS_Hall]
[1]
  folding stability dG unfold: 2.71 ± 0.11 kcal/mol
[2]
  folding stability dG unfold: 3.03 ± 0.17 kcal/mol
[3]
  folding stability dG unfold: 1.96 ± 0.13 kcal/mol
